Results as given in patent publication US20200332003A1.
Changes are numbered by the printed parent chain. Several values for one entry are separate records, joined by “and”; a condition that tells them apart may be missing. Equal entries are not always repeated.

B1: anti-TRBV9-1 monoclonal antibody (antibody, human IgG1, kappa, V domains shown)
VH: QIQLVQSGPELREPGESVKLSCKASGYTFTDYLVHWVKQAPGKGLKWMGWINTYTGTPTYADDFEGRFVFSLEASASTANLQISNLKNEDTATYFCARSWRRGLRGLGFDYWGQGVFVTVSS
VL: DVQMTQSPYNLAASPGESVSINCKASKSINKYLAWYQQKPGKPNKLLIYDGSTLQSGIPSRFSGSGSGTDFTLTIRGLEPEDFGLYYCQQHNEYPPTFGAGTKLELKR
B2: anti-TRBV9-4 monoclonal antibody (antibody, human IgG1, kappa, V domains shown)
VH: B1 VH with L104I, L107I
VL: B1 VL
B3: anti-TRBV9-3 monoclonal antibody (antibody, human IgG1, kappa, V domains shown)
VH: B1 VH with L104I
VL: B1 VL
B4: anti-TRBV9-2 monoclonal antibody (antibody, human IgG1, kappa, V domains shown)
VH: B1 VH with L107I
VL: B1 VL

Target: T cell receptor with a beta-chain of the TRBV9 family on human peripheral blood T lymphocytes (human)
Test: flow cytometry of human blood mononuclear cells, FITC-labelled antibody at 270 ng per test (upper plot), co-stained with anti-CD3-eFluor 405 [upper plot]

B1 was tested. Which % of cells in the CD3+TRBV9+ gate (small rectangle) did it give?
The % of cells in the CD3+TRBV9+ gate (small rectangle) was 1.6%.

For B2, which % of cells in the CD3+TRBV9+ gate (small rectangle) is on record?
Its % of cells in the CD3+TRBV9+ gate (small rectangle) is 2.9%.

With B3 as the binder, how does the % of cells in the CD3+TRBV9+ gate (small rectangle) read?
Its % of cells in the CD3+TRBV9+ gate (small rectangle) is 3%.

Target: T cell receptor with a beta-chain of the TRBV9 family on human peripheral blood T lymphocytes (human)
Test: cell sorting with the FITC-labelled antibody, then sequencing of TCR beta-chains

B4 was tested. Which percent of TCR beta-chain sequences of the sorted CD3+TRBV9+ fraction that belong to the TRBV9 family did it give?
The percent of TCR beta-chain sequences of the sorted CD3+TRBV9+ fraction that belong to the TRBV9 family was 90%.

Target: T cell receptor with a beta-chain of the TRBV9 family on human peripheral blood T lymphocytes (human)
Test: flow cytometry of human blood mononuclear cells, FITC-labelled antibody at 27 ng per test (lower plot), co-stained with anti-CD3-eFluor 405 [lower plot]

For B1, which % of cells in the CD3+TRBV9+ gate (small rectangle) is on record?
The % of cells in the CD3+TRBV9+ gate (small rectangle) was 3%.

B2 was tested. Which % of cells in the CD3+TRBV9+ gate (small rectangle) did it give?
Its % of cells in the CD3+TRBV9+ gate (small rectangle) is 2.4%.

With B3 as the binder, how does the % of cells in the CD3+TRBV9+ gate (small rectangle) read?
The % of cells in the CD3+TRBV9+ gate (small rectangle) was 2.6%.

Target: TRBV9 + TRAV26 antigen
Test: BLI (OctetRed 96), antigen immobilized on AR2G sensor, antibody 126-2 nM, 1:1 model

B1 was tested. Which Kd did it give?
The Kd was 0.22 nM and 0.204 nM and 0.278 nM.

And the koff?
The koff was 0.000114 s⁻¹ and 0.000113 s⁻¹ and 0.000183 s⁻¹.

What about the kon of the same binder?
The kon was 559000 M⁻¹ s⁻¹ and 515000 M⁻¹ s⁻¹ and 658000 M⁻¹ s⁻¹.

Which Kd does the source give for B2 here?
Its Kd is under 0.001 nM.

And the koff?
The koff was under 1e-07 s⁻¹.

And the kon?
Its kon is 865000 M⁻¹ s⁻¹ and 579000 M⁻¹ s⁻¹.

For B4, which kon is on record?
The kon was 447000 M⁻¹ s⁻¹ and 381000 M⁻¹ s⁻¹.

What does the source list for B3?
Kd: 0.319 nM and 0.582 nM; koff: 9.16e-05 s⁻¹ and 9.8e-05 s⁻¹; kon: 287000 M⁻¹ s⁻¹ and 168000 M⁻¹ s⁻¹

Target: TRBV9 + TRAV38 antigen
Test: as above

B1 was tested. Which Kd did it give?
The Kd was 0.365 nM and 0.529 nM and 0.414 nM.

What about the koff of the same binder?
Its koff is 0.000205 s⁻¹ and 0.000196 s⁻¹ and 0.000183 s⁻¹.

And the kon?
The kon was 562000 M⁻¹ s⁻¹ and 371000 M⁻¹ s⁻¹ and 441000 M⁻¹ s⁻¹.

What does the source list for B2?
Kd: < 0.001 nM; koff: < 1e-07 s⁻¹; kon: 713000 M⁻¹ s⁻¹ and 476000 M⁻¹ s⁻¹

How did the Kd turn out when B4 was run?
The Kd was under 0.001 nM.

What about the koff of the same binder?
The koff was under 1e-07 s⁻¹.

And the kon?
The kon was 397000 M⁻¹ s⁻¹ and 289000 M⁻¹ s⁻¹.

How did the Kd turn out when B3 was run?
The Kd was 0.311 nM and 0.4 nM.

What about the koff of the same binder?
Its koff is 9.61e-05 s⁻¹ and 9.16e-05 s⁻¹.

What about the kon of the same binder?
The kon was 309000 M⁻¹ s⁻¹ and 229000 M⁻¹ s⁻¹.

Target: T cell receptor with a beta-chain of the TRBV9 family on human peripheral blood T lymphocytes (human)
Test: flow cytometry, FITC-labelled antibody at 5 ng/ul and 0.5 ng/ul on human mononuclear blood cells

With B4 as the binder, how does the percent of the CD3-positive fraction stained read?
Its percent of the CD3-positive fraction stained is 2.9%.
